For one substance, Dcvm/Dpbs results are on record in publication PMC4928780.

The target of the test is mucins in cell-free regions of human cervicovaginal mucus (CVM) (human (endogenous in cervicovaginal mucus)). The experiment in a line: FRAP (fluorescence recovery after photobleaching); labeled exogenous IgG (0.1–1.5 mg/mL final) stirred into 10 μL of fresh pH-neutralized (pH 6.8–7.1) human CVM, 1 hr at 37°C; about 10 μm x 10 μm ROIs in cell-free regions; recovery half-time against PBS (Dcvm/Dpbs); 7–9 repeats.

With “Human intravenous immunoglobulin (IVIG), FITC-labeled (antibody)”, the Dcvm/Dpbs came to 0.8.
